Data on two substances can be found in patent US7138103.

Experiment [1] addresses Ac-Lys(DTPA)-Tyr-Lys(DTPA)-Lys(Tscg-Cys)-NH2 (IMP 192). The experiment in a line: in vivo, GW-39 tumor in nude mice, calculated from biodistribution assuming one peptide per bsAb; 1 h after peptide.
Experiment [2] concerns the target carcinoembryonic antigen (CEA) (UniProt P06731). The experiment in a line: analytical size exclusion HPLC, radioiodinated bsAb with 10-20× molar excess of CEA. A general note: In gel filtration, larger molecules generally elute earlier.
In experiment [3] the target is Ac-Lys(DTPA)-Tyr-Lys(DTPA)-Lys(Tscg-Cys)-NH2 (IMP 192). Description: in vivo, GW-39 tumor in nude mice, calculated from biodistribution assuming one peptide per bsAb; 3 h after peptide.
For experiment [4] the target is unchanged. Description: in vivo, GW-39 tumor in nude mice, calculated from biodistribution assuming one peptide per bsAb; 24 h after peptide.
The target is the same in experiment [5]. The experiment in a line: in vivo, GW-39 tumor in nude mice, calculated from biodistribution assuming one peptide per bsAb; 30 min after peptide.
In experiment [6] the target is mono HSG peptide (peptide containing a single HSG substituent and a thiol). Description: BIAcore, mono HSG peptide coupled by its thiol to a CM-5 chip. (SPR reads the build-up and loss of mass on a sensor chip optically.)

Chain of carcinoembryonic antigen (CEA) (P06731 35-685 limits assumed): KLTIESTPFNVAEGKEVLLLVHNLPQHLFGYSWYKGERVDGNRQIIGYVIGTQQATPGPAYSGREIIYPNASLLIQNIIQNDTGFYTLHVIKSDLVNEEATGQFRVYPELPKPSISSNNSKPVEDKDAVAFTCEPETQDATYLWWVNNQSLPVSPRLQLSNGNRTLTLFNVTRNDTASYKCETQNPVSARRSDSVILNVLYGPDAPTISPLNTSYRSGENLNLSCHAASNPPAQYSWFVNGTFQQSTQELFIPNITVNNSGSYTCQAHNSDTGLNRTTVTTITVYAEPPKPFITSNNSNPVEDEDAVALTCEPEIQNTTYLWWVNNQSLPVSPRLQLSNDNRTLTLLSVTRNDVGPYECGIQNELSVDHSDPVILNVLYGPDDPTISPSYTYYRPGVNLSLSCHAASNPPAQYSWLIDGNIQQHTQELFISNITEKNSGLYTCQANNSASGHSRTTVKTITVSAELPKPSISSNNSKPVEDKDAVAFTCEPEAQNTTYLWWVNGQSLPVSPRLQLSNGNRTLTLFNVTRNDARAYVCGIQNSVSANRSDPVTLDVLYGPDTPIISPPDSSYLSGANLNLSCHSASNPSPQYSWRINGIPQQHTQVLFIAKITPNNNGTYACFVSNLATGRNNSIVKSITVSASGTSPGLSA

As to “hMN-14 × 734 (Fab × Fab) bsAb (bispecific antibody)”, the % saturation on hMN-14 × 734 (available DTPA binding sites on the tumor bound bsAb filled with 99m-Tc-IMP-192) in experiment [1] is 25.8%; in experiment [3] it was 25%; in experiment [4] it was 28%; in experiment [5], 25.4%. Also, the percent of bsAb bound in experiment [2] amounted to 90%.

In turn, “hMN-14 × m679 F(ab′)2 bsMAb (bispecific antibody)” yielded a Kd in experiment [6] of 1.5 nM.

What is called Kd is a measure of binding affinity in units of concentration. A high value points to a looser complex.
